Laboratory results reported in the DeepSol protein solubility set.

Assay: soluble on expression in E. coli; label from the status in PepcDB or PDB records

Sequence | soluble on expression in E. coli
DKQKALKKIAKCLELGNSANINEAANAIKMAHNLMLKYGLDKDDIEFIKMGKTQSTHLLPAAISSGILRVIRGINTRFGVEAVLLNHKGLKRVEFIGEADRAIFAAFAFDIIYREMNEQTGQFRNSFAGTGTSSLEVTRRVNSFVSGWIEGALEKLPIITPDEDSMNKINSYIDKEFENIDRETFKQQLREAMKNLTEDYETGLKKGRRVSVNRPIHGAQAPKLLK | not soluble
DLHNMLLTRNQELDVAYQTIRQDLESAGDLMRQLLPVEQQIGATKLSYSYLPCSQLGGDMLGYAALDEQHVAFYVFDVSGHGISSALMSFSIQKTLSRSCGPESVTTDLVEGEYVVSEPNVVVERLNLRYQQTPDSQLYFTIVYAVLNTQTGKLRYCTAGHPKFLWRHQSEATIDMVGDENFIVGALAPMQYKGGEITLEPNDSIWCFSDGVVEARYENEFFSVNRLIANVQSVSGLPFEAQVSSVVESIKRWQVKEELDDDLTLLQLQWFGPNTSTCEGEDD | not soluble
DLPIADVQGSLDTRHIAIDRVGIKAIRHPVVVADKGGGSQHTVAQFNMYVNLPHNFKGTHMSRFVEILNSHEREISVESFEEILRSMVSRLESDSGHIEMAFPYFINKSAPVSGVKSLLDYEVTFIGEIKHGNQYSFTMKVIVPVTSLCPCSKKISDYGAHNQRSHVTISVRTNSFIWIEDIIRIAEEQASCELYGLLKRPDEKYVTERAYNNPKFVEDIVRDVAEVLNHDDRIDAYIVESENFESIHNHSAYA | not soluble
DLRFFGDFVLEGDARLGEVAALYGLKLDGIDPGMPLSQFIVQKNRGEPVVGDQIEWNGTIWTVAVMDGNKIQKVGVKFPEGTRPGPGLFL | not soluble
DLYDDDDKDPTLMKISRGLLKTILEAAKSAHPDEFIALLSGSKDVMDELIFLPFVSGSVSAVIHLDMLPIGMKVFGTVHSHPSPSCRPSEEDLSLFTRFGKYHIIVCYPYDENSWKCYNRKGEEVELEVVEKD | soluble
DNSVDLYFLMGLSGSAQGHLSNVQTLGSDLLKALNEISRSGRIGFGSIVNMTFQHILKLTADSSQFQRELRKQLVSGKLATPKGQLDAVVQVAICLGEIGWRNGTRFLVLVTDNDFHLAKDKTLGTRQNTSDGRCHLDDGMYRSRGEPDYQSVVQLASKLAENNIQPIFVVPSRMVKTYEKLTTFIPKLTIGELSDDSSNVAQLIRNAYSKL | soluble
DRETAPTIKINQITLRYSANQEPVLSGVSADIESGDCVAVIGPNACGKTSLLLSLLGVVEPQAGFIMVNNKNLKQYDPETFREYAGYCPAEPDLFPGTLADNLRIAKPDATDEELIAALKHAGGESLFIALNSNLNIMLENNASNMLSAVEGSYINLARAFLKKSNFIILDEPLANRNPQARKAFSNTILALKGKATIVFSSHDPELIKLADKVIVLDKGSVVYAGPIPEKNSQEMESSNHE | not soluble
DSDVEIATIALLDTVQPAHLAPDTKEETVKRWERYSAFAKKTYGLDFPVPYELLETAGEDALLAMMAEFLSTTDATEHGLSAGVLEHQRASFVDNRILDRMDMQRWANVKIPVMLFRAERMHDGAIELEPAYAEIEPDGGWSAIVEDLVIIQLSGDHLAVVDEPEIGKVGVALTNRIEQLQGK | not soluble
DVQLVESGGGSVQAGGSLRLSCAVSGYKDRNYCMGWFRRAPGKEREGVAVIDSSGRTAYADSVKGRFTISRDVALDTAYLQMNSLKPEDTAMYYCAAGWSSLGSCGTNRNRYNYWGQGTQVTVSSRGRHHHHHH | soluble
DVSGTVCLSALPPEATDTLNLIASDGPFPYSQDGVTFQNRESVLPTQSYGYYHEYTVITPGARTRGTRRIITGEATQEDYYTGDHYATFSLIDQTC | soluble
DYSYLFGQGGTELFGEFAGAANGAVGTINGLRYTHPVGGSYMLVGRYIPADYWSYYRGAFARYSRPGNEWGVMGRAAWELPSDRTVRAFADYYGSFVPRFGRKEKTEALYWMFEGEKRLSALSWSCRIRGTADKRYRRSLAVRLRGRYMFDERWRLMASLQWSRSNSFDRELQTWQAPTGGKSFALRADYSGGKLLRVCSMDAVAFDTDSFADRLYEAVHNPRHHYSSAFFYGRGVRLGVFVRIAPLPQVEVESRIDHLLRRDTDTIGSAGELIRGQARTHLFMTVRYR | not soluble
EAMKIKNQFATWDYEKKLQSMEHDSSIQKQLLATQRAQIEQRLAAQKAALEAERDAAGYHAAAGEADNEGVRQAYDALAQDSARRARDLAETAQRGKSQLDEIVGRLKDLADRSAANIINQGINQTVVVKLEKTGRLHTDQDIAKALEETLNAVKGLEARVEMVEAARAPSALEAAHSQL | not soluble
EAQIYGYVEKATLIDQNLTLSAKLDTGAKSASLHAVNITEIEKKGIPYLRFTVPTKTGDYSFEGEYVGKVKIKVRSSETNPGLLRTTPIKRPVVLLNIKLGDKVRTIKVNLTNRKRFLYPLLLGRDAIIDFNGAVDPALTFTTKSK | not soluble
ECPVFEPSWAEFRDPLGYIAKIRPIAEKSGICKIRPPADWQPPFAVEVDNFRFTPRIQRLNEL | not soluble
EDRSVHFDSMSNGQGAASALPIFAEFLKRVYADPKLGYTTEEKFEFPQDFQPCMMDQNVEYFDAGGGEVVEPLPEILVELP | not soluble
EGDKVTGEVQQVEDKQVVVHINGGKFNGIIPISQLSTHHIENPSEVVKVGDEVEAYVTKIEFDEENDTGAYILSKRQ | not soluble

Sequence | soluble on expression in E. coli
EGSENLFITGDNLEALKLLQESYLGKIDMIYIDPPYNTGKDFVYQDNFKKTKKENDLSEGILDEEGDRLVKNEKSNGRYHSDWLTMIYPRLKLARNLLSDSGIIFVSIDENEIANLELLLTEIFGENNLAGTIVWDKRNPKGDSKGVSMQHEYIVAAAKNINIFSEFKEFKRPKKNAEIIL | not soluble
EHDNTSYICKKIDEDEYVLSARLEIEKVNEMFGLDLPESDDYLTVGGLILNQYQSFPKLHELVRVGRYQFKIIKVTATKIELVRLKVME | not soluble
EIEEIKITMDVLVASEDVMVTVTKEGYVKRTSLRSYAASNGELPGMKEGDYLLGRYEMNTQDTLLLFTKKGNYLYLPVHQLPDIRWKDNGQHVANLVTVDKDDDILTTLAVKEFSEE | soluble
EIHHRIKNNLQVICSLLSLEAERFSDEKMLETLKESQNRVASMALIHEELYKGDKNDTLDFAAYLRKLTADLFSSYNLGNDNISLKMDL | not soluble
EISGFGQCLVWVQCSFPNCGKWRRLCGNIDPSVLPDNWSCDQNTDVQYNRCDIPEETWTGLE | soluble
EKDSQSPKIRQKYLRQYPELNSLIPAVVTEVREKEATAALQNGQIIIIPWEGMSWARPALKRGGWVGKSPTKAQQVVAAGDIIYVHPTEKSWQLAQIP | not soluble
ELLPEIFRQTVEHAPIAISITDLKANILYANRAFRTITGYGSEEVLGKNESILSNGTTPRLVYQALWGRLAQKKPWSGVLVNRRKDKTLYLAELTVAPVLNEAGETIYYLGMHRDTSELH | soluble
ELQAIHEKVKTEHAALSTEVVHLRQRTEELLRCNEQQAAELETCKEQLFQSNMERKELHNTVMDLRGNIRVFCRIRPPLESEENRMCCTWTYHDESTVELQSIDAQAKSKMGQQIFSFDQVFHPLSSQSDIFEMVSPLIQSALDGYNICIFAYGQTGSGKTYTMDGVPESVGVIPRTVDLLFDSIRGYRNLGWEYEIKATFLEIYNEVLYDLLSNEQKDMEIRMAKNNKNDIYVSNITEETVLDPNHLRHLMHTAKMNRATASTAGNERSSRSHAVTKLELIGRHAEKQEISVGSINLVDLAGSESPKTSTRMTETKNINRSLSELTNVILALLQKQDHIPYRNSKLTHLLMPSLGGNSKTLMFINVSPFQDCFQESVKSLRFAASVNSCKMTKAKRNRYLNNSVANSSTQSNNSGSFDK | soluble
ELSENFKKLMKYPYRPCTCTRCIEEQRVSAWFDERFNRSMQPLLTAKNAHLEEDTYKWWLRLQREKQPNNLNDTIRELFQVVPGNVDPLLEKRLVSCRRCAVVGNSGNLKESYYGPQIDSHDFVLRMNKAPTEGFEADVGSKTTHHFVYPESFRELAQEVSMILVPFKTTDLEWVISATTTGRISHTYVPVPAKIKVKKEKILIYHPAFIKYVFDRWLQGHGRYPSTGILSVIFSLHICDEVDLYGFGADSKGNWHHYWENNPSAGAFRKTGVHDGDFESNVTTILASINKIRIFKGR | soluble
EMKVLVPDTSVIVDGRLTQYLERLKEKVKVVVPEAVVAEIEHQANAGKAIGHTGLEELKKLREIANEGKILLEFYGERPDLWQIRRAKSGEIDNMVREVARELNGVLVTGDQIQRDIAIAKGIDVIYLEAKREPRMRLEDFFDEE | not soluble
ESEPQPEPCPGRAGAAARARWCPQPRPLVLLSLGALEFVSLSQQAFQICPVFVVCGLYQDGNSNKSFLLRSWCLHPEGTVCASSPERKDLPEALGNDPGTPGQRGLKLFGKAAGLLGKMAMAPSPSLVQVYTSPAAVAVWEWQDGLGTWHPYSATVCSFIEQQFVQQKGQRFGLGSLAHSIPLGQADPSLAPYIIDLPSWTQFRQDTGTMRAVRRHLFPQHSAPGRGVVWEWLSDDGSWTAYEASVCDYLEQQVARGNQLVDLAPLGYNYTVNYTTHTQTNKTSSFCRSVRRQAGPPYPVTTIIAPPGHTGVACSCHQCLSGSRTGPVSGRYRHSMTNLPAYPVPQHPPHRTASVFGTHQAFAPYNKPSLSGARSAPRLNTTNAWGAAPPSLGSQPLYRSSLSHLGPQHLPPGSSTSGAVSASLPSGPSSSPGSVPATVPMQMPKPSRVQQALAGMTSVLMSAIGLPVCLSRAPQPTSPPASRLASKSHGSVKRLRKMSVKEATPKPEPEPEQVIKNYTEELKVPPDEVCVLGPWLPLFLFGNNSTWKGHPPHLA | soluble
ETVLADRFERLVELVTMMGDQGELPIAMALANVVPCSQWDELARVLVTLFDSRHLLYQLLWNMFSKEVELADSMQTLFRGNSLASKIMTFCFKVYGATYLQKLLDPLLRIVITSSDWQHVSFEVDPTRLEPSESLEENQRNLLQMTEKFFHAIISSSSEFPPQLRSVCHCLYQVVSQRFPQNSIGAVGSAMFLRFINPAIVSPYEAGILDKKPPPIIERGLKLMSKILQSIANHVLFTKEEHMRPFNDFVKSNFDAARRFFLDIASDCPTSDAVNHSLSFISDGNVLALHRLLWNNQEKIGQYLSSNRDHKAVGRRPFDKMATLLAYLGPPEH | soluble
EVDPFVELHVRAMGLAEVYGKMNGYMPMNYEYNVGRVETGIAKALGIKPSRDYEGIVAESQKLAAKAPPRPPVLCPGCPHSASFYAIRRVVDELGDAALPS | not soluble
EVENNFPCSLYKDEIMKEIERESKRIKLNDNDDEGNKKIIAPRIFISDDKDSLKCPCDPEMVSNSTCRFFVCKCVERRAEVTSNNEVVVKEEYKDEYADIPEHKPTYDKM | soluble
EVKLVESGGGLVKPGGSLKLSCAASGFTFNNYVMVWLRQTPEKRLEWVASISRGGSTYYPDSVKGRFTISRDNARNILYLQMSSLRSEDTAMYYCVRGTTIVAGDVWGAGTTVTVSSAKTTPPSVYPLAPGSAAQTNSMVTLGCLVKGYFPEPVTVTWNSGSLSSGVHTFPAVLQSDLYTLSSSVTVPSSTWPSETVTCNVAHPASSTKVDKKIVPRDC | soluble
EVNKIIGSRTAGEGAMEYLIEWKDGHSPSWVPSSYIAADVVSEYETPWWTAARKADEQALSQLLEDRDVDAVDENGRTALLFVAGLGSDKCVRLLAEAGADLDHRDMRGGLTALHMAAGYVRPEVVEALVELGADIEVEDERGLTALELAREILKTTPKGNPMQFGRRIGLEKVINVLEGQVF | soluble
